This note sets out measurements from patent US20250269026A1 (CHENGDU KELUN PRECISION BIOTECHNOLOGY, published 2025).

The experiment has as its target biotin-labeled MSLN antigen (UniProt Q13421 296-580, limits assumed, biotin label (site not stated)). Description: flow cytometry; CAR-T cells labeled with biotin-labeled MSLN antigen, detected with fluorescent streptavidin. From the text: The nucleic acid sequence encoding the CAR was expressed under the drive of promoter, and the lentivirus-transfected T cells were labeled with biotin-labeled MSLN antigen, and then detected with fluorescently labeled streptavidin, and determined by flow cytometry, which reflected the expression level of the CAR on the surface of T cells. The CAR positive rate of the CAR-T cells obtained in Example 3 was detected by the above method, and the FACS detection results were shown in the following table.
Background: In flow cytometry, cells or beads pass a laser one at a time.

biotin-labeled MSLN antigen, sequence (Q13421 other isoform, or with tags, fused parts or gaps limits assumed): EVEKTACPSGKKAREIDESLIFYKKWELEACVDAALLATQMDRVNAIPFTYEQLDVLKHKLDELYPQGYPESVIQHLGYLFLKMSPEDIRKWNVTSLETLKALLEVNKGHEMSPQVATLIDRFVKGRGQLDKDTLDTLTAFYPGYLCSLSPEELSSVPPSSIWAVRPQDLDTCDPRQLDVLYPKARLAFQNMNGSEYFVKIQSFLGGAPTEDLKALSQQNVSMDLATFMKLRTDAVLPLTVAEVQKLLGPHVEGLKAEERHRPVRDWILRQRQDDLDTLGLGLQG

B1: G16-CAR (other)
chain: QVQLVQSGAEVTKPGASVKVSCRASGYPFSNFFMNWVRQAPGQGLEWMGIINPIGGSTTYAQKFQGRVTMTRDTSTDTVYMELSSLRSDDTAVYYCARSSSHLGAFDIWGQGTMVTVSSASGGGGSGGRASGGGGSDIQLTQSPSSVSASVGDRVTITCRASQSISTWVAWYQHKPGVAPKLLIYASPTLQSGVPSRFSGSGSGTDFTLTISSLQSEDFATYYCQQAHSFPITFGQGTRLEIKRTTTPAPRPPTPAPTIASQPLSLRPEACRPAAGGAVHTRGLDFACDIYIWAPLAGTCGVLLLSLVITLYCKRGRKKLLYIFKQPFMRPVQTTQEEDGCSCRFPEEEEGGCELRVKFSRSADAPAYKQGQNQLYNELNLGRREEYDVLDKRRGRDPEMGGKPRRKNPQEGLYNELQKDKMAEAYSEIGMKGERRRGKGHDGLYQGLSTATKDTYDALHMQALPPR
notes: Chimeric antigen receptor on lentivirus-transduced human T cells; the signal peptide is left out here; also called G16 chimeric antigen receptor
On to B1, for which the CAR positive rate turned out to be 41.5%.

B2: G5-CAR (other)
chain: QVQLVQSGGGLVQPGRSLRLSCAASGFTFDDYAMHWVRQAPGKGLEWVSGISWNSGSIGYADSVKGRFTISRDNAKNSLYLQMNSLRAEDTALYYCAKDMGSSGWSPVDYWGQGTLVTVSSASGGGGSGGRASGGGGSDIQVTQSPSSLSASVGDRVTITCRASQGINHYLAWYQQKPGKAPKLLIYGASTLQTGVSSRFSGSGSGTEFTLTISSLQPEDFATYYCQQLNGYPLGYTFGQGTKVEIKRTTTPAPRPPTPAPTIASQPLSLRPEACRPAAGGAVHTRGLDFACDIYIWAPLAGTCGVLLLSLVITLYCKRGRKKLLYIFKQPFMRPVQTTQEEDGCSCRFPEEEEGGCELRVKFSRSADAPAYKQGQNQLYNELNLGRREEYDVLDKRRGRDPEMGGKPRRKNPQEGLYNELQKDKMAEAYSEIGMKGERRRGKGHDGLYQGLSTATKDTYDALHMQALPPR
notes: Chimeric antigen receptor on lentivirus-transduced human T cells; the signal peptide is left out here; also called G5 chimeric antigen receptor
Regarding B2, the CAR positive rate came to 50.5%.
